Results on two molecules are retold here after publication PMC2621267, “The Influence of Catalysis on Mad2 Activation Dynamics” (PLoS Biology, 2009).

Settings in all cases: both partners purified
For experiment [1], the target named is T1, Full-length Mad2^wt (UniProt Q13257 1-205).
T1 construct: Mad2, wild type, full length; purified as a monomer in the open (O-Mad2) conformation; Unlabelled form; also called wild-type Mad2; O-Mad2; source: purified as described [14], final size-exclusion chromatography on Superdex-75 in PBS
T1 sequence (Q13257 whole entry): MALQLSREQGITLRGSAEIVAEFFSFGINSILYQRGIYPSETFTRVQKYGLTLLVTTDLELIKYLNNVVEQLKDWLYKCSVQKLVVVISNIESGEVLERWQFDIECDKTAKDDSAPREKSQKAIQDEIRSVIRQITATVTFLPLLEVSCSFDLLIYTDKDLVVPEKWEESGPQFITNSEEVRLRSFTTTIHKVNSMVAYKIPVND
Kind of experiment: pull-down; GST-Cdc20 111-138 (1 uM) immobilised on GSH-agarose beads; 1 uM Mad2 for 24 h at room temperature, or 2 uM Mad2 as a time course; SDS-PAGE and densitometry.

Experiment [2] addresses T2, Full-length Mad2^F141A (UniProt Q13257 1-205, F141A).
T2 construct: Mad2, full length, Phe141 replaced by Ala; purified as a monomer in the open (O-Mad2) conformation; Unlabelled form; source: purified as described [14], final size-exclusion chromatography on Superdex-75 in PBS
The description is as above.

For experiment [3], the target named is T3, Alexa Fluor 488-labelled Mad2^F141A (UniProt Q13257 1-205, F141A, Alexa 488 C5 maleimide, covalent label (residue not stated)).
T3 construct: Mad2, full length, Phe141 replaced by Ala; monomeric O-Mad2 after labelling; Labelled form of m2; also called Alexa-Mad2^F141A; Alexa-488-Mad2^F141A; source: purified as described [14], labelled with Alexa 488 C5 maleimide, separated from free dye on Superdex-75
T3 sequence (Q13257 whole entry F141A): as the sequence (Q13257 whole entry) above, with F141A counted along it
Kind of experiment: real-time confocal fluorescence on a surface in a flow chamber; biotin-Cdc20 111-138 (~1 uM) held on a neutravidin-coated chamber surface; Alexa-488-Mad2 injected at 1-8 uM in PBS; fluorescence on the surface followed; constants from a global fit of rate equations.

Experiment [4] addresses T3, Alexa Fluor 488-labelled Mad2^F141A. Kind of experiment: real-time confocal fluorescence in a flow chamber, signal in solution; same chamber with surface-held biotin-Cdc20 111-138; loss of Alexa-Mad2 fluorescence from solution followed; parameters of the curves laid over the data, [Cdc20T] = 0.9 uM.

What is called Kd is the concentration at which binding is half-saturated. Lower therefore signals a tighter complex. The term koff denotes a measure of how fast the partners let go of each other. High values mean fast dissociation, low ones slow dissociation. Broadly, the kon is a measure of how fast the partners come together. A lower kon goes with slower complex formation.

Ends that are not written are not given here. * marks the point of attachment. Biotin = O=C1N[C@H]2[C@H](CS[C@H]2CCCCC(=O)*)N1

T2 sequence (Q13257 whole entry F141A): as the sequence (Q13257 whole entry) above, with F141A counted along it

EHQKAWALNLNGFDVEEAKILRLSGKPQ (domain or fragment, UniProt Q12834 111-138, looked up, Immobilised on GSH-agarose beads) [GST-Cdc20^111-138]: the binding result in experiment [1] and in experiment [2] was “binds” each time.

B1: synthetic biotin-Cdc20^111-138 (peptide, UniProt Q12834 111-138, looked up)
peptide: Biotin-EHQKAWALNLNGFDVEEAKILRLSGKPQ
notes: Cdc20, residues 111-138; Held on the neutravidin-coated surface of the flow chamber through its biotin; also called biotinylated Cdc20 peptide; biotin-Cdc20 peptide^111-138; source: synthetic peptide
For the molecule B1, in experiment [3], binding was characterised by a dissociation constant (Kd) of 0.1 µM, the off-rate (koff) came out at 4.83e-06 s⁻¹ and the kon was found to be 48.3 M⁻¹ s⁻¹. Further, in experiment [4], binding was characterised by a dissociation constant (Kd) of 0.24 µM and the kon was found to be 27 M⁻¹ s⁻¹.
